The target of assay [1] is CCR5 on HEK-CCR5 cells (UniProt P51681). Nature of the assay: cell-based or functional assay.
Assay [2] concerns the target CCR5-RLuc8 on CHO-CCR5-RLuc8/YFP-CAAX cells (UniProt P51681). Put plainly: cell-based or functional assay.

In assay [1], “5P12-RANTES reference standard (from UniProt P13501 34-91) (ligand)” yielded a Ca2+ flux signaling at 300 nM on HEK-CCR5 cells (bottom of the scale) of 0%. For the same substance, the CCR5 internalization (bystander BRET) at 300 nM (bottom of the scale) in assay [2] was determined as 0%.
In the case of PSC-RANTES reference standard (ligand), the Ca2+ flux signaling at 300 nM on HEK-CCR5 cells (top of the scale) in assay [1] turned out to be 100%. For the same substance, the CCR5 internalization (bystander BRET) at 300 nM (top of the scale) in assay [2] is 100%.

The values are drawn from US20210340173A1.
